Laboratory results published in the supplement of paper PMC12764529.
± gives the half width of the 95% confidence interval.

Key:
[1] = folding stability dG unfold from trypsin proteolysis; higher = more stable
In short: (§1)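 Unfolding free energy was derived, per protease or combined, by relating Bayesian-fitted K50 values from sequencing counts to a sequence-predicted unfolded-state K50 and a shared folded-state K50. The underlying digests exposed cysteine-free mini-proteins under 80 residues, in a PA-tagged cDNA display construct, to trypsin and chymotrypsin at 11 threefold-diluted concentrations and to a no-protease condition. A filter kept only designs with AlphaFold2 dimer inter-PAE above 15.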

[2] = folding stability dG unfold from chymotrypsin proteolysis; higher = more stable
In short: as §1

[3] = folding stability dG unfold (combined trypsin and chymotrypsin); higher = more stable
In short: as §1

Sequence: SGFTFSTLIAPDESLSITVKEPNSSTTTSFDFTVDPATGAVSATATTTPPDGKTQTFSVTIPVSPGAAALSA [r9_770_JUSTAS]
- folding stability dG unfold [1]: 1.02 ± 0.08 kcal/mol
- folding stability dG unfold [2]: 0.924 ± 0.18 kcal/mol
- folding stability dG unfold [3]: 0.973 ± 0.11 kcal/mol

Sequence: SGKDTLILELVLEVDSEEQAQAIRDIFEALGYKVEVRVFPLPDGLIVFVRVEVPVPPPPPSLEDPELLAKSA [r9_863_TrMRF]
- folding stability dG unfold [1]: 1.92 ± 0.092 kcal/mol
- folding stability dG unfold [2]: 2.75 ± 0.028 kcal/mol
- folding stability dG unfold [3]: 2.57 ± 0.15 kcal/mol

Sequence: SGKKKIKIYVESIEVFEDGVVKIKVKAIFPDGSEEDVIAEIRVEPDEDGRPHLLVVIRIGDKDFLLVLDASA [r9_271_TrMRF]
- folding stability dG unfold [1]: 2.81 ± 0.11 kcal/mol
- folding stability dG unfold [2]: 3.15 ± 0.059 kcal/mol
- folding stability dG unfold [3]: 2.96 ± 0.17 kcal/mol

Sequence: SGLKPNEVKKFTFSFPVTDPVTGKEVTATVELYVSAGNPFVVVKLTVTPPDGKTETKTFVVPPGATLTIDSA [r9_88_TrMRF]
- folding stability dG unfold [1]: 1.73 ± 0.054 kcal/mol
- folding stability dG unfold [2]: 3.598 ± 0.028 kcal/mol
- folding stability dG unfold [3]: 3.2 ± 0.17 kcal/mol

Sequence: SGLPEELARKLGLSAMTPLPDGTLVMALPDGTRVVVRIETTEVRLSPLGEPAVEVEVEVERLPAPAPEAASA [r9_648_JUSTAS]
- folding stability dG unfold [1]: 1.5 ± 0.027 kcal/mol
- folding stability dG unfold [2]: 1.67 ± 0.018 kcal/mol
- folding stability dG unfold [3]: 1.6 ± 0.048 kcal/mol

Sequence: SGLTLTLPVAPDEELKLTLKLPNTDETVEVEAETVAETGDVFAVAVATPPNGDKKVVPAVIKVEPGEPDESA [r9_770_TrMRF]
- folding stability dG unfold [1]: 0.704 ± 0.038 kcal/mol
- folding stability dG unfold [2]: 0.332 ± 0.16 kcal/mol
- folding stability dG unfold [3]: 0.642 ± 0.12 kcal/mol

Sequence: SGLTNLRVEAELVPPGVLRVTFTEGGKPVYELTFTVVVPAPPVVEPVLLPNGVPALVVYDPATGKPVVYPSA [r9_343_TrMRF]
- folding stability dG unfold [1]: 2.17 ± 0.13 kcal/mol
- folding stability dG unfold [2]: 3.27 ± 0.11 kcal/mol
- folding stability dG unfold [3]: 2.86 ± 0.08 kcal/mol

Sequence: SGMDTVTPTTSTTQYFVEPNPEPVLSISTTTDTTTDPANPGVVTVTTTTTITDPRTGTTTTTPTTTTVPASA [r9_342_JUSTAS]
- folding stability dG unfold [1]: 0.142 ± 0.019 kcal/mol
- folding stability dG unfold [2]: -0.564 ± 0.14 kcal/mol
- folding stability dG unfold [3]: -0.146 ± 0.18 kcal/mol

Sequence: SGMERTPLTPTETVTLTIPPGSLTITPTASPGPLTVTVTVPGSGTPTVVELPVEAPDLDAALAAVVAALQSA [r9_982_JUSTAS]
- folding stability dG unfold [1]: 0.787 ± 0.04 kcal/mol
- folding stability dG unfold [2]: 1.39 ± 0.078 kcal/mol
- folding stability dG unfold [3]: 1.12 ± 0.056 kcal/mol

Sequence: SGMIKVSVEEKELKDGTKLYTITVEHPDPEVAKETAEKIVKEKFPKNYKVETKLTESGKVIAPVIVPKKKSA [r9_646_JUSTAS]
- folding stability dG unfold [1]: 0.379 ± 0.09 kcal/mol
- folding stability dG unfold [2]: 1.1 ± 0.15 kcal/mol
- folding stability dG unfold [3]: 0.9 ± 0.2 kcal/mol

Sequence: SGMKSVTTPVSLTINTSPEEAEEFIEKLAKERGIEDVTVVKVTTDPATGTLTVEAELHTTIPPLPPPSSVSA [r9_918_JUSTAS]
- folding stability dG unfold [1]: 1.07 ± 0.044 kcal/mol
- folding stability dG unfold [2]: 1.17 ± 0.061 kcal/mol
- folding stability dG unfold [3]: 1.1 ± 0.27 kcal/mol

Sequence: SGMPTVTLNVTIEFERERLSFDPKTGKPRLELVKVTKPVTITGFFTSPEEAAAAAEAVRKALEADPEALASA [r9_77_JUSTAS]
- folding stability dG unfold [1]: 1.7 ± 0.068 kcal/mol
- folding stability dG unfold [2]: 2.37 ± 0.034 kcal/mol
- folding stability dG unfold [3]: 2.07 ± 0.084 kcal/mol

Sequence: SGMTIKILEVDFNPLGEEDEKATITLKAEIGGEEVELKIEVYRRPDGSAIAKITLILPGSGEPFEITADISA [r9_241_TrMRF]
- folding stability dG unfold [1]: 2.61 ± 0.11 kcal/mol
- folding stability dG unfold [2]: 4.16 ± 0.13 kcal/mol
- folding stability dG unfold [3]: 3.91 ± 0.17 kcal/mol

Sequence: SGMTVTPVTHPNGQTLTLTFDPETGTVTVNRSPAISLEEVKAALEALIPSDRSVTVSTLPDGTAAVTLTASA [r9_933_JUSTAS]
- folding stability dG unfold [1]: 1.36 ± 0.04 kcal/mol
- folding stability dG unfold [2]: 1.06 ± 0.1 kcal/mol
- folding stability dG unfold [3]: 1.27 ± 0.059 kcal/mol

Sequence: SGPAEGFEAELVEEYTLPETERVFVYRVTHPDGTEYVLVVVRNPDGTWEPVFVYRPDDPDALREALELLGSA [r9_1069_TrMRF]
- folding stability dG unfold [1]: 3.11 ± 0.081 kcal/mol
- folding stability dG unfold [2]: 3.595 ± 0.022 kcal/mol
- folding stability dG unfold [3]: 3.47 ± 0.057 kcal/mol
